Reference: publication PMC9282385, “Rapid self-test of unprocessed viruses of SARS-CoV-2 and its variants in saliva by portable wireless graphene biosensor”

Columns and labels:
[1] = target: SARS-CoV nucleocapsid protein (SARS-CoV, UniProt P59595 1-422); assay: […], room temperature; pH not stated; details: protein: commercial; chain copies: 2
SARS-CoV-2 spike RBD = SARS-CoV-2 spike RBD (SARS-CoV-2, UniProt P0DTC2 319-541)
SARS-CoV spike RBD = SARS-CoV spike RBD (SARS-CoV, UniProt P59594 306-527); assay: […], room temperature; pH not stated; details: protein: commercial

Sequence of SARS-CoV nucleocapsid protein (P59595 whole entry): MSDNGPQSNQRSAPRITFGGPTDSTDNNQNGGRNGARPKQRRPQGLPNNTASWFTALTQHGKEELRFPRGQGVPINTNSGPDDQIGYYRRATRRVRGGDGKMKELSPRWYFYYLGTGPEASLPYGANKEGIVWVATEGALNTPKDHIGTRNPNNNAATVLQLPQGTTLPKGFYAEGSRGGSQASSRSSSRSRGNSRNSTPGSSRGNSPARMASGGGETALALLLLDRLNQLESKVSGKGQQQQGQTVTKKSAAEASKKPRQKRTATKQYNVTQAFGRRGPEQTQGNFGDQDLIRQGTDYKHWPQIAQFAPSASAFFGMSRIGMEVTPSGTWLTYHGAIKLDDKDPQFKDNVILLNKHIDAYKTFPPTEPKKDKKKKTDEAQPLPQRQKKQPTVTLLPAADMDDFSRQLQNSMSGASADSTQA

B1: Aptamer-N (structured_DNA)
DNA: GCTGGATGTCGCTTACGACAATATTCCTTAGGGGCACCGCTACATTGACACATCCAGC
[1]
  binding result: binds

B2: Aptamer-S (structured_DNA)
DNA: CAGCACCGACCTTGTGCTTTGGGAGTGCTGGTCCAAGGGCGTTAATGGACA
SARS-CoV-2 spike RBD
  binding result: binds
SARS-CoV spike RBD
  binding result: binds
